Test results as given in patent US20200121801A1, “DRUG DELIVERY CONJUGATES CONTAINING UNNATURAL AMINO ACIDS AND METHODS FOR USING” (priority 2012, published 2020).

Tests used:
[1] = tested on: experimental autoimmune encephalomyelitis; assay: Autoimmune encephalomyelitis (EAE) model; format: in vivo, rats; settings: when dosed alone
Experimental: METHOD. Autoimmune Encephalomyelitis (EAE) Model. EAE is induced in rats by immunization against 25 μg of guinea pig myelin basic protein (MBP) formulated with CFA containing 1 mg of grounded Mycobacterium tuberculosis H37Ra. Pertussis toxin is given intraperitoneally (1 μg/rat) to enhance the organ-specific autoimmunity. Starting 8 days after induction, rats are divided into […]: (1) untreated control (n=8), (2) test compound (n=7), and (3) test compound plus competitor compound (n=7), such as EC0923 competition. All treatments start on day 8 after EAE induction. The animals in the EAE control group are left untreated. […] The clinical severity of EAE is monitored on a daily basis and graded on a scale of 0 to 5 per animal. The clinical signs of ascending paralysis of EAE rats are divided into a 0-5 scale: 0=No disease, 0.5=distal limp tail, 1=limp tail, 2=mild paraparesis; ataxia-weakened hind limbs, 3=moderate paraparesis; hind limbs paresis, 4=complete hind limb paralysis, 5=complete hind limb paralysis and incontinence (euthanasia). On day 16, the animals are euthanized and brain and spinal cords are fixed in formalin for histology.

[2] = Relative whole animal toxicity in folate deficient rats; format: in vivo; settings: 3 μmol/kg i.v. BIW, 2 weeks
Experimental: EXAMPLE. […] Test compounds are administered i.v. at equivalent doses to folate deficient rats.

[3] = Plasma stability / free drug release after s.c. dose (EC1496 vs EC0746); format: in vivo, rats; settings: 500 nmol/kg s.c.
Experimental: METHOD. Human serum stability. Compounds described herein are tested in human serum for stability using conventional protocols and methods. Briefly, test compound is administered to the test animal, such as by subcutaneous injection. The plasma concentration of the conjugate, and optionally one or more metabolites, is monitored over time. The results are graphed to determine Cmax, Tmax, half-life, and AUC for the test compound and metabolites.
EXAMPLE. […] EC1495 and EC0746 (comparator compound) are each administered at 500 nmol/kg by subcutaneous injection. The plasma concentration of the conjugate and the metabolites (aminopterin and aminopterin hydrazide) are monitored over time. […] As also shown in the following table, free drug is released as the parent aminopterin and the hydrazide derivative (EC0470).

Structure (SMILES): N=c1[nH]c(N)nc2ncc(CNc3ccc(C(=O)N[C@@H](CCC(=O)NNC(=O)OCCSSC[C@@H](NC(=O)[C@H](CCC(=O)NC[C@H](O)[C@@H](O)[C@H](O)[C@H](O)CO)NC(=O)[C@@H](CCC(=O)O)NC(=O)[C@H](CCC(=O)NC[C@H](O)[C@@H](O)[C@H](O)[C@H](O)CO)NC(=O)[C@@H](CCC(=O)O)NC(=O)[C@H](CCC(=O)NC[C@H](O)[C@@H](O)[C@H](O)[C@H](O)CO)NC(=O)CC[C@@H](NC(=O)c4ccc(NCc5cnc6nc(N)[nH]c(=O)c6n5)cc4)C(=O)O)C(=O)O)C(=O)O)cc3)nc12 [EC1496]
- treatment-related weight loss [1]: not observed
- toxicity relative to comparative example EC0746 [2]: less toxic
- Cmax of conjugate, comparison [3]: higher Cmax than EC0746
- half-life, comparison with EC0746 [3]: shorter half-life
- Free drug released (%): AMT ([3]; plasma): 5.13%
- Free drug released (%): AMT-hydrazide (EC0470) ([3]; plasma): 3.15%
- Free drug released (%): Total ([3]; plasma): 8.28%
